B1: Col2a1 intron 6 mutant (dsDNA)
DNA 1: GGCAGATAGCTGTTTTCCTTTTCGACAGAAACCCAG
DNA 2: CTGGGTTTCTGTCGAAAAGGAAAACAGCTATCTGCC
B2: Col2a1 intron 6 (human) (dsDNA)
DNA 1: GGCAGGTAACTGAGGACTTTCTTTATAGAATCCCAG
DNA 2: CTGGGATTCTATAAAGAAAGTCCTCAGTTACCTGCC

Biological target: SOX9 (Homo sapiens, UniProt P48436 1-509)
Assay: EMSA; EMSA with recombinant human SOX9 and 32P probes as in cited ref 67; buffer, salt, pH and temperature not given
Details: protein: recombinant; chain copies: 2; label: 32P-dCTP Klenow fill-in

Chain of SOX9 (P48436 whole entry): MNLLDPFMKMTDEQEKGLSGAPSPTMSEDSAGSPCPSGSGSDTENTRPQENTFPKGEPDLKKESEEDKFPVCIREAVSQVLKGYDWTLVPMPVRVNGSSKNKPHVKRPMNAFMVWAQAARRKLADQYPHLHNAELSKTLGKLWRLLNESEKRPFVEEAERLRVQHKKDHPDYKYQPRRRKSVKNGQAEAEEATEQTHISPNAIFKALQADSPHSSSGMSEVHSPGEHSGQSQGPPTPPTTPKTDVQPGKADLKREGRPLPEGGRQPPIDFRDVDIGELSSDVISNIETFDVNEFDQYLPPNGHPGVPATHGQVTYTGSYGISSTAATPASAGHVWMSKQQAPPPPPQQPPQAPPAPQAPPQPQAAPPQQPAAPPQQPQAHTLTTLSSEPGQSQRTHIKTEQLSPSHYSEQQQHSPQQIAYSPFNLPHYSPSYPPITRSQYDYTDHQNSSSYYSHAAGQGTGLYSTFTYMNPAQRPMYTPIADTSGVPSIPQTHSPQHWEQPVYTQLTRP

Row | Binder | binding result
1 | B1 | no binding
2 | B2 | binds

— paper PMC2852419, “Identification of SOX9 Interaction Sites in the Genome of Chondrocytes”
